Data as given in patent US20190359723A1 (CARSGEN THERAPEUTICS, published 2019).

Key:
IL-13RA2 huFc [1] = biological target: T1, IL-13RA2 huFc (human); test: SPR (Biacore T200), ligand IL13Ra2 on the chip, scFv_Fc as analyte at 6.25 to 100 nM, 1:1 binding fit, flow 30 ul/min
T1 construct: Expressed in 293F cells, purified on protein A; also called human IL13RA2; recombinant IL-13RA2
Method: (§1) IL-13RA2 huFc was coated on the CMS chip by amino coupling, coated to about 500 RU, and the gradiently diluted antibodies were passed through the antigen-coated channel at a flow rate of 30 ul/min as a mobile phase. The running buffer was HBS-N and the temperature was 25° C. The experimental data was analyzed by BIAevaluation 3.2 and the kinetic curves were fitted using a 1:1 langmuir model.
(§2) Affinity was determined using the method of Example 5 using biacore T200, and the results are shown as in FIGS. 11B-11G. […] The association and dissociation constants of the antibodies are shown as in FIG. 11F.
Target sequence in this assay (chain, as listed by the source limits assumed): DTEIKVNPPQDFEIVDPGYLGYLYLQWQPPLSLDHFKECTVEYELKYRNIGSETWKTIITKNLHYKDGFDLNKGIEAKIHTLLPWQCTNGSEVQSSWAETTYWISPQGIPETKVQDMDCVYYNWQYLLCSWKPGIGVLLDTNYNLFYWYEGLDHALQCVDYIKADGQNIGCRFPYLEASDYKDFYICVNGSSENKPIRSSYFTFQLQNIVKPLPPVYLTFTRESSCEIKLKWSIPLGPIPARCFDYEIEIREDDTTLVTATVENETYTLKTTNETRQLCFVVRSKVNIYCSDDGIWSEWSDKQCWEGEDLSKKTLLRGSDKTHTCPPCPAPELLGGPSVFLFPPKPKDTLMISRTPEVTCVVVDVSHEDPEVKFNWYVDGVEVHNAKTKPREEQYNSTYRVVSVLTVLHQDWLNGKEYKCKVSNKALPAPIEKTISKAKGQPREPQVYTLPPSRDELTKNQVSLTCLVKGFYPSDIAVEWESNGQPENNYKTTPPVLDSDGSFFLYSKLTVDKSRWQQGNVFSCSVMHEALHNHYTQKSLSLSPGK

[2] = biological target: T2, IL-13RA2 endogenously expressed on U251 cells (human, UniProt Q14627 27-380); test: flow cytometry on U251 cells, scFv_Fc form, 5-fold dilutions from 2,000 nM, FITC anti-human IgG
T2 construct: whole, on cells; also called U251 cells expressing IL13RA2; U251 (IL-13RA2-positive)
T2 sequence (looked up): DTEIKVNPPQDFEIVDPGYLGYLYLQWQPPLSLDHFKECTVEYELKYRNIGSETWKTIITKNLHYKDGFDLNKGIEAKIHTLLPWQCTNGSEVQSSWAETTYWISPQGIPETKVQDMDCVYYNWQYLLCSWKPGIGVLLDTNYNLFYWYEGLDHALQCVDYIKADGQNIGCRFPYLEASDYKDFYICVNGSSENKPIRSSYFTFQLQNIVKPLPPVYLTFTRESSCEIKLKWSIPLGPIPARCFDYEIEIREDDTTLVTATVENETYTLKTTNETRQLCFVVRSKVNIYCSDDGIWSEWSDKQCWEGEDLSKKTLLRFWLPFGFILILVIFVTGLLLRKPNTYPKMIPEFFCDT
Method: Following the method of Example 6, cells were harvested, washed once with a growth medium, and resuspended in PBS, and the cell concentration was adjusted to 4E+5 cells/ml. The gradiently diluted scFv_Fc fusion antibody was incubated with the cells for 30 minutes on ice, and the antibody was 5-fold serially diluted with 2,000 nM as the initial concentration, into 11 gradients. Then the mixture was incubated with a FITC-labeled anti-human IgG secondary antibody. After two washing steps, detection was performed using a Guava easyCyte™ HT System instrument. […] There is also a 2-8 fold increase compared with the parent antibody.

IL-13RA2 huFc [3] = biological target: T1, IL-13RA2 huFc; test: SPR (Biacore T200), scFv_Fc forms on IL-13RA2 huFc, summary table
Method: as §1, §2
Target sequence in this assay (chain, as listed by the source limits assumed): as the sequence (chain, as listed by the source limits assumed) above

IL-13RA2 huFc [4] = biological target: T1, IL-13RA2 huFc; test: SPR (Biacore), induced scFv supernatant; column head: Dissociation constant Kd(S-1)
Target sequence in this assay (chain, as listed by the source limits assumed): as the sequence (chain, as listed by the source limits assumed) above

IL-13RA2 huFc [5] = biological target: T1, IL-13RA2 huFc; test: Biacore, induced supernatant of the scFv clone; parent 31C2
Target sequence in this assay (chain, as listed by the source limits assumed): as the sequence (chain, as listed by the source limits assumed) above

IL-13RA2 huFc [6] = biological target: T1, IL-13RA2 huFc; test: SPR (Biacore T200), nickel-purified scFv
Method: as §1
Target sequence in this assay (chain, as listed by the source limits assumed): as the sequence (chain, as listed by the source limits assumed) above
Affinity purification was performed using a nickel column, affinity was measured using biacore T200, and the association and dissociation constants of the affinity matured antibodies are shown as in FIG. 10A.

IL-13RA2 huFc [7] = biological target: T1, IL-13RA2 huFc; test: SPR (Biacore T200), ligand IL13Ra2 on the chip, scFv_Fc as analyte at 100, 50, 25 and 6.25 nM, 1:1 binding fit, flow 30 ul/min
Method: as §1, §2

Row | Binder | Kd (IL-13RA2 huFc [1]) [nM] | koff (IL-13RA2 huFc [1]) [s⁻¹] | kon (IL-13RA2 huFc [1]) [M⁻¹ s⁻¹] | EC50 [2] [nM] | Kd (IL-13RA2 huFc [3]) [nM] | koff (IL-13RA2 huFc [3]) [s⁻¹] | kon (IL-13RA2 huFc [3]) [M⁻¹ s⁻¹] | koff (IL-13RA2 huFc [4]) [s⁻¹] | fold lower dissociation constant Kd than the parent clone (IL-13RA2 huFc [5]) [times] | Kd (IL-13RA2 huFc [6]) [nM] | koff (IL-13RA2 huFc [6]) [s⁻¹] | kon (IL-13RA2 huFc [6]) [M⁻¹ s⁻¹] | Kd (IL-13RA2 huFc [7]) [nM] | koff (IL-13RA2 huFc [7]) [s⁻¹] | kon (IL-13RA2 huFc [7]) [M⁻¹ s⁻¹]
1 | 1B11 (scFv_Fc form) (Fc fusion, not shown: human Fc segment of the eukaryotic expression vector V152) scFv: EVQLLESGGGLVQPGGSLRLSCAASGFTFSRDALNWVRQAPGKGLEWVSAISGSGGSTFYADSVKGRFTISRDNSKNTLYLQMNSLRAEDTAVYYCAKVRYGWGAGAFDYWGQGTLVTVSSGGGGSGGGGSGGGGSDIQMTQSPSTLSASVGDRVTITCRASQSISSWLAWYQQKPGKAPKLLIYDASSLESGVPSRFSGSGSGTEFTLTISSLQPDDFATYYCQQYDTYPPITFGQGTKVEIK | 1.04 | 0.000263 | 252000 | 0.47 | 1.04 | 0.000263 | 253000 | – | – | – | – | – | – | – | –
2 | 1D8 (scFv) (scFv, also called clone 1D8) scFv: EVQLLESGGGLVQPGGSLRLSCAASGFTFSRYAMNWVRQAPGKGLEWVSAINASGGSTYYADSVKGRFTISRDNSKNTLYLQMNSLRAEDTAVYYCAKVRYGWGAGAFDYWGQGTLVTVSSGGGGSGGGGSGGGGSDIQMTQSPSTLSASVGDRVTITCRASQSISSWLAWYQQKPGKAPKLLIYDASSLESGVPSRFSGSGSGTEFTLTISSLQPDDFATYYCQQYDTYPPITFGQGTKVEIK | – | – | – | – | – | – | – | 0.00094 | > 10 | 13.8 | 0.000911 | 66000 | – | – | –
3 | 1D11 (scFv) (scFv, also called clone 1D11) scFv: EVQLLESGGGLVQPGGSLRLSCAASGFTFGTIPMSWVRQAPGKGLEWVSSISGSAGSTYYADSVKGRFTISRDNSKNTLYLQMNSLRAEDTAVYYCAKVRYGWGAGAFDYWGQGTLVTVSSGGGGSGGGGSGGGGSDIQMTQSPSTLSASVGDRVTITCRASQSISSWLAWYQQKPGKAPKLLIYDASSLESGVPSRFSGSGSGTEFTLTISSLQPDDFATYYCQQYDTYPPITFGQGTKVEIK | – | – | – | – | – | – | – | 0.000677 | > 10 | 9.89 | 0.000386 | 39000 | – | – | –
4 | 1H7 (scFv) (scFv, also called clone 1H7) scFv: EVQLLESGGGLVQPGGSLRLSCAASGFTFRRYAMSWVRQAPGKGLEWVSGISGSGGGTYYADSVKGRFTISRDNSKNTLYLQMNSLRAEDTAVYYCAKVRYGWGAGAFDYWGQGTLVTVSSGGGGSGGGGSGGGGSDIQMTQSPSTLSASVGDRVTITCRASQSISSWLAWYQQKPGKAPKLLIYDASSLESGVPSRFSGSGSGTEFTLTISSLQPDDFATYYCQQYDTYPPITFGQGTKVEIK | – | – | – | – | – | – | – | 0.000888 | > 10 | 12.1 | 0.000765 | 63200 | – | – | –
5 | 2A5 (scFv) (scFv, also called clone 2A5) scFv: EVQLLESGGGLVQPGGSLRLSCAASGFTFSRYAMNWVRQAPGKGLEWVSAISASGGGTYYADSVKGRFTISRDNSKNTLYLQMNSLRAEDTAVYYCAKVRYGWGAGAFDYWGQGTLVTVSSGGGGSGGGGSGGGGSDIQMTQSPSTLSASVGDRVTITCRASQSISSWLAWYQQKPGKAPKLLIYDASSLESGVPSRFSGSGSGTEFTLTISSLQPDDFATYYCQQYDTYPPITFGQGTKVEIK | – | – | – | – | – | – | – | 0.000788 | > 10 | 15.5 | 0.000656 | 42400 | – | – | –
6 | 2C7 (scFv) (scFv, also called clone 2C7) scFv: EVQLLESGGGLVQPGGSLRLSCAASGFTFKLPAMSWVRQAPGKGLEWVSAITGSGGSTYYADSVKGRFTISRDNSKNTLYLQMNSLRAEDTAVYYCAKVRYGWGAGAFDYWGQGTLVTVSSGGGGSGGGGSGGGGSDIQMTQSPSTLSASVGDRVTITCRASQSISSWLAWYQQKPGKAPKLLIYDASSLESGVPSRFSGSGSGTEFTLTISSLQPDDFATYYCQQYDTYPPITFGQGTKVEIK | – | – | – | – | – | – | – | 0.000501 | 10 | 5.42 | 0.00041 | 75700 | – | – | –
7 | 2C7 (scFv_Fc form) (Fc fusion, not shown: human Fc segment of the eukaryotic expression vector V152) scFv: EVQLLESGGGLVQPGGSLRLSCAASGFTFKLPAMSWVRQAPGKGLEWVSAITGSGGSTYYADSVKGRFTISRDNSKNTLYLQMNSLRAEDTAVYYCAKVRYGWGAGAFDYWGQGTLVTVSSGGGGSGGGGSGGGGSDIQMTQSPSTLSASVGDRVTITCRASQSISSWLAWYQQKPGKAPKLLIYDASSLESGVPSRFSGSGSGTEFTLTISSLQPDDFATYYCQQYDTYPPITFGQGTKVEIK | 0.248 | 9.15e-05 | 369000 | 0.57 | 0.248 | 9.15e-05 | 369000 | – | – | – | – | – | – | – | –
8 | 2D4 (scFv_Fc form) (Fc fusion, not shown: human Fc segment of the eukaryotic expression vector V152) scFv: EVQLLESGGGLVQPGGSLRLSCAASGFTFRKYAMGWVRQAPGKGLEWVSGISGSVGSTYYADSVKGRFTISRDNSKNTLYLQMNSLRAEDTAVYYCAKVRYGWGAGAFDYWGQGTLVTVSSGGGGSGGGGSGGGGSDIQMTQSPSTLSASVGDRVTITCRASQSISSWLAWYQQKPGKAPKLLIYDASSLESGVPSRFSGSGSGTEFTLTISSLQPDDFATYYCQQYDTYPPITFGQGTKVEIK | 0.174 | 0.000113 | 646000 | 0.37 | 0.174 | 0.000113 | 646000 | – | – | – | – | – | – | – | –
9 | 5D7 (scFv_Fc form) (Fc fusion, not shown: human Fc segment of the eukaryotic expression vector V152) scFv: EVQLLESGGGLVQPGGSLRLSCAASGFTFSNYAMSWVRQAPGKGLEWVSGIRSSGGRTFYADSVKGRFTISRDNSKNTLYLQMNSLRAEDTAVYYCARVAFSGSFDYWGQGTLVTVSSGGGGSGGGGSGGGGSDIQMTQSPSTLSASVGDRVTITCRASQSISSWLAWYQQKPGKAPKLLIYDASSLESGVPSRFSGSGSGTEFTLTISSLQPDDFATYYCQQRNRYPPTFGQGTKVEIK | 0.335 | 0.000247 | 737000 | 0.56 | 0.335 | 0.000247 | 737000 | – | – | – | – | – | – | – | –
10 | 5G3 (scFv_Fc form) (Fc fusion, not shown: human Fc segment of the eukaryotic expression vector V152) scFv: EVQLLESGGGLVQPGGSLRLSCAASGFTFSSYVLSWVRQAPGKGLEWVSAIRGSAGNTYYADSVKGRFTISRDNSKNTLYLQMNSLRAEDTAVYYCARVAFSGSFDYWGQGTLVTVSSGGGGSGGGGSGGGGSDIQMTQSPSTLSASVGDRVTITCRASQSISSWLAWYQQKPGKAPKLLIYDASSLESGVPSRFSGSGSGTEFTLTISSLQPDDFATYYCQQRNRYPPTFGQGTKVEIK | – | – | – | 0.53 | 0.194 | 0.000134 | 690000 | – | – | – | – | – | 0.194 | 0.000134 | 690000
